Consider 17 molecules from patent publication US20260258115A1 (MAPP BIOPHARMACEUTICAL, published 2026).

Broadly, the Kd is the free concentration of one partner at which half of the binding sites on the other are occupied at equilibrium, for simple one-to-one binding. Low values mean a tighter complex, high ones a looser complex.

In experiment [1] the target is RSV fusion glycoprotein (RSV F) on RSV-A2 virus (respiratory syncytial virus, UniProt P03420 26-574). Briefly: cell-based or functional assay.
For experiment [2], the target named is RSV prefusion F (preF), DS-Cav1 (respiratory syncytial virus, UniProt P03420 26-513). Briefly: BLI, IgG on sensor, 100 nM antigen. In general terms: Biolayer interferometry detects binding as a change in optical thickness at a sensor tip.
For experiment [3], the target named is RSV postfusion F (postF), F deltaFP (respiratory syncytial virus, UniProt P03420 26-513). The experiment in a line: BLI, IgG on sensor, 100 nM antigen.

B1: ADI-41436 (antibody, V domains shown)
VH: EVQLLESGGGVVQPGRSLRLSCAASGFTFSDYAMHWVRQAPGKGLEWVALISFDGSNEYYADSVKGRFTISRDNSRNTVYLQVNTLRPDDTAVFYCARDSHLRLTTRGWGSFDYWGQGTLVTVSS
VL: NFMLTQPHSVSESPGKTVTIACTRSSGSIARNYVQWYQQRPGRSPTMVIYEDNQRPSGVPDRFSGSIDTSSNSASLTISGLKTEDEADYYCQPYDPDNLVFGGGTKLTVL
notes: IgG1; also called Ab 720
Take B1: the “Neutralization IC50 (RSV subtype A)” value in experiment [1] is over 25 µg/mL. Further, the Kd in experiment [2] came to 1.1 nM; in experiment [3], 0.237 nM.

B2: ADI-41415 (antibody, V domains shown)
VH: QVTLKESGPALVKPTQTLTLTCTFSGFSLSTSRTRVSWIRQPPGKALEWLARVDWDDDKFYNPVLKTRLSISKDPSKNQVVLTMTNVDPVDTATYYCVRMAHYGSGGYYVEYFQDWGQGTLVTVSS
VL: DIQLTQSPASLSASAGDRVTITCRASQNINRYLNWYQQQSGKAPKLLIYAASILQSGVPSRFSGSGSGTDFTLTITSLQPEDFAIYYCQQSYTTPKYTFGQGTKVEIK
notes: IgG1
For B2, in experiment [1], the “Neutralization IC50 (RSV subtype A)” value was over 25 µg/mL. In addition, the dissociation constant Kd in experiment [2] was found to be 1.08 nM; in experiment [3], 0.644 nM.

B3: ADI-41444 (antibody, V domains shown)
VH: EVQLVESGPRLVKPSQTLSLTCTVSGGSIGTGDYHWTWIRQSPGKGLEWIGNIYYNGRTFYNPSLKGRGSISRDASKNQFSLNLSSVSAADTAVYYCARDRAAKGFDHWGQGTLVTVSS
VL: DIQLTQSPSTLSASVGDRVTITCRASQNINGWLAWYQQKPGRVPKLLIYKASTLESGVPSRFSGSASGTEFTLTINNLLPDDFATYYCQQYNDYPYTFGQGTKVEIK
notes: IgG1
B3: the “Neutralization IC50 (RSV subtype A)” value in experiment [1] was over 25 µg/mL. For the same molecule, the Kd in experiment [2] amounted to 3.01 nM; in experiment [3] it was 0.541 nM.

B4: ADI-41405 (antibody, V domains shown)
VH: EVQLLESGGGLVQPGGSLRLSCAASGFSFSIYSMNWVRQAPGKGLEWISYITSTGSPTYYADSVKGRFTISRDNAKNSLYLQMSSLRAEDTAVYYCVTYCSSSSCPAEFDYWGQGTLVTVSS
VL: EIVLTQSPATLSLSPGERATLSCRASQSVNSYLAWYQQKPGQAPRLLIYDASNRATGIPARFSGSGSGTDFTLTISSLEAEDFAVYYCQHRNNWPALTFGGGTKVEIK
notes: IgG1
In the case of B4, in experiment [1], the “Neutralization IC50 (RSV subtype A)” value was over 25 µg/mL. The Kd was determined as 2.72 nM in experiment [2] and 0.458 nM in experiment [3].

B5: ADI-41403 (antibody, V domains shown)
VH: EVQLVESGGGLVKPGGSLRLSCAASGFTFGTYTMNWVRQAPGKGLEWVSSISSSSSHIYYADSVKGRFTISRDNARKALYLQMNSLRPEDTAVYFCARFLGDYGGDGNTYYYYYGMDVWGQGTTVTVSS
VL: EIVMTQSPLSLPVTPGEPASISCRSSQSLLHSNGKNYLDWYLQKPGQSPQLLIHLGSNRASGVPDRFSGSGSGTDFTLQISRVEAEDVGVYYCMQALQTPTFGGGTKLEIK
notes: IgG1
Regarding B5, the “Neutralization IC50 (RSV subtype A)” value in experiment [1] was over 25 µg/mL. Further, the values for the equilibrium dissociation constant (Kd) in experiment [2] and in experiment [3] were 3.04 nM and 0.841 nM, respectively.

B6: ADI-41404 (antibody, V domains shown)
VH: QVQLVQSGAEVKKPGSSVKVSCKASGGTFSSYGISWVRQAPGQGLEWMGGIIPIFGTVSYAQKFRGRLTITAHEPTSTAYMDLSSLRSEDTAVYYCARINGRGWELSSLNYYYGMDVWGQGTTVTVSS
VL: EIVLTQSPGTLSLSPGERGTLSCRASQSVASSYLAWYQQKPGQAPRLLIYGATSRATGIPDRFSGSGSGTDFTLTISRLEPEDFAVYYCQQYGSSLFTFGGGTKVDIK
notes: IgG1; also called Ab 696
On to B6, for which the “Neutralization IC50 (RSV subtype A)” value in experiment [1] was over 25 µg/mL. Also, the Kd in experiment [2] came out at 47.4 nM; in experiment [3], 13.6 nM.

B7: ADI-41432 (antibody, V domains shown)
VH: QVQLVQSGAEVKKPGYSVKVSCKASGGTFSTFGISWVRQAPGLGLEWMGGIIPLFGTADYSKKYQGRVTITADESTSTGYMELNSLTPEDTAVYYCARSPGHLWSRYDAFEVWGQGTTVTVSS
VL: QPVLTQPRSVSGSPGQSVTISCSGTSSDVGGYNYVSWYQQYPGKAPKLIIYDVNKRPSGVPDRFSGSKSDNTASLTISGLQADDESDYFCCSYAGSHTFEVFGTGTKVTVL
notes: IgG1
On to B7, for which the “Neutralization IC50 (RSV subtype A)” value in experiment [1] is over 25 µg/mL. For the same molecule, the Kd in experiment [2] amounted to 2.05 nM; in experiment [3] it was 0.286 nM.

B8: ADI-41429 (antibody, V domains shown)
VH: QVQLVQSGAEVKKPGSSVKVSCKASGGTFSSYAISWVRQAPGQGLEWMGGIIPIFGTVNYAQKFPGRVTITADESTSTAYMELSSLRSEDTAIYYCARDSPSYTGSLLFSQYYYGMDVWGQGTTVTVSS
VL: QPVLTQPASVSGSPGQSITISCTGTSSDVGGYDYVSWYQHHPGKAPKLMIYEVSNRPSGVSNRFSGSKSGNTASLTISGLQAEDEADYYCSSFTTSSPRVFGTGTKLTVL
notes: IgG1; also called Ab 714
B8: the “Neutralization IC50 (RSV subtype A)” value in experiment [1] was over 25 µg/mL. The Kd came to 3.62 nM in experiment [2] and 1 nM in experiment [3].

B9: ADI-41427 (antibody, V domains shown)
VH: QVQLVESGPGLVKPSETLSLTCTVSGGSIGGYYWSWIRQPPGKGLEWIGYMYYSGSTNYNPSLKSRVTMSVDTSKNQFSLKLTSVTAADTAVYYCARVLRFLVGGMDVWGQGTTVTVSS
VL: QSVLIQPASVSGSPGQSITISCTGTSSDVGGYNYVSWYQQHPGKAPKLIIYEVSNRPSGVSNRFSGSKSGNTASLTISGLQAEDEADYYCNSYTTIATLVFGTGTKVTVL
notes: IgG1
For B9, the “Neutralization IC50 (RSV subtype A)” value in experiment [1] was over 25 µg/mL. For the same molecule, the figures for the Kd in experiment [2] and in experiment [3] were 2.7 nM and 0.917 nM, respectively.

B10: ADI-41418 (antibody, V domains shown)
VH: EVQLVESGGGLVKPGGSLRLSCAASGLSFTDAWMGWVRQAPGKGLEWVGHIKKKTDYGPTAYAAPVRGRFTVSRDDSKNTLYLQMTSLKTEDTAVYYCITERGYNFGYNDYFGVDVWGQGTLVTVSS
VL: QPGLTQPPSVSVSPGQTARITCSGDALPKKYAYWYQQKSGQAPVMIIYEDNKRPSGIPERFSGSTSGTMATLTISGAQMEDEADYYCFSTDSGDDQSGVFGGGTRLTVL
notes: IgG1
As for B10, the “Neutralization IC50 (RSV subtype A)” value in experiment [1] was over 25 µg/mL. The figures for the dissociation constant Kd in experiment [2] and in experiment [3] were 1.58 nM and 0.341 nM, respectively.

B11: ADI-41443 (antibody, V domains shown)
VH: EVQLVESGGGVVQPGKSLRLSCAASGFTFSSYAMHWVRQAPGKGLEWVSVIWYEDSDKYYGDSVKGRFTISRDNSKNTLYLQMNSLRAEDTAVYYCARKSGGFGGLDYWGQGTLVTVSS
VL: DIVMTQSPLSLPVTPGEPASISCKSSQSLLTANGYNYLDWYVQKPGQSPHVLISLGSNRASGVPDRFSGSGSGTDFTLKISRVEAEDVGVYYCMQAIETPITFGQGTRLEIK
notes: IgG1; also called Ab 727
In the case of B11, in experiment [1], the “Neutralization IC50 (RSV subtype A)” value is over 25 µg/mL. The dissociation constant (Kd) turned out to be 2.4 nM in experiment [2] and 0.373 nM in experiment [3].

B12: ADI-41414 (antibody, V domains shown)
VH: EVQLLESGGGLAQPGRSLKVSCAASGVTVTSTYMGWVRQAPGKGLQWVSVIYSDGTTYYADSVKGRFTISRDHYKNTLYLQMNSLRAEDTALYYCARGNRRTDFGYWGQGTLVTVSS
VL: EIVMTQSPSTLSASVGDRVTITCRASQTISNWLAWYQQKPGKAPKLLIYQASTLESGVPSRFSGSGSGTEFTLTISSLQPDDFATYYCQQYNTYYTFGPGTKVEIK
notes: IgG1
For the molecule B12, the “Neutralization IC50 (RSV subtype A)” value in experiment [1] is over 25 µg/mL. Moreover, the Kd in experiment [2] worked out at 2.7 nM; in experiment [3], 1.1 nM.

B13: ADI-41407 (antibody, V domains shown)
VH: EVQLVESGGGLVQPGGSLRLSCAASGFTFSSNAMSWVRQAPGKGLEWVSYISGGSATKSYADSVKGRFTISRDNSKNTLYLQMKSLRAEDTAVYYCVGGSAYYSGFDYWGQGTLVTVSS
VL: DIVMTQSPSSLSASVGDRVTISCRASQDIRNYLAWYQQKPGKVPNLLIYAASTLESGVPSRFSGSGYGTDFTLTISGLQPEDVATYYCQKYDSAPPFTFGPGTKVDIK
notes: IgG1
Take B13: the “Neutralization IC50 (RSV subtype A)” value in experiment [1] was over 25 µg/mL. For the same molecule, the Kd in experiment [2] is 2.08 nM; in experiment [3], 0.371 nM.

B14: ADI-41431 (antibody, V domains shown)
VH: QVQLVQSGAEVKKPGASVRVSCTASGYRFFTYGITWVRQAPGQGLEWMGWISAYNGNTKFAQKFQGRLTMTTDAPTSTADMELRGLRSDDTAVYYCAREEGGYHGTGSNNYWGQGTLVTVSS
VL: QSVLTQPPSVSAAPGQKVTISCSGSGSNVGGNDVSWYQQFPGTAPKLLIYDNSKRPSGIPDRFSGSKSGTSATLVITGLQTGDEADYYCGTWDSSLSVGVFGTGTKLTVL
notes: IgG1; also called Ab 715
For B14, in experiment [1], the “Neutralization IC50 (RSV subtype A)” value was 2.38 µg/mL. The Kd is 0.744 nM in experiment [2] and 0.345 nM in experiment [3].

B15: ADI-41440 (antibody, V domains shown)
VH: EVQLVESGGGLVKPGGSLRLSCAVSGFTFSDYTMNWVRQAPGKGLEWVSSISGSGTYIYYGDSVKGQFTISRDNAKNSLYLQMNSLRAEDTAVYYCARELPAKTIFGVDFLGGTTAYDCWGQGTPVTVSS
VL: EIVLTQSPATLSVSPGERATLSCRASQSVSSNLAWYQQKPGQAPRLLIYSATTRATGVPARFSGSGSGTEFTLTISSLRSEDFAVYYCQQYNNGGTFGPGTKVEIK
notes: IgG1; also called Ab 724
As to B15, in experiment [1], the “Neutralization IC50 (RSV subtype A)” value is over 25 µg/mL. The Kd was 3.18 nM in experiment [2] and 1.23 nM in experiment [3].

B16: ADI-41393 (antibody, V domains shown)
VH: QVQLVQSGAEVKKPGESLKISCKGSGYSFTSYWIGWVRQMPGKGLEWMGIIYPGDSDTRYSPSFQGQVTISADKSTSTAYLQWSSLKASDSAMYYCARSEFSSSFDFWGQGTLVTVSS
VL: NFMLTQPHSVSESPGKTVTISCTGSSGSIASYYVQWYQLRPGSAPTTVIYEDNQRLSGVPDRFSGSIDSSSNSASLTISGLKTEDEADYYCQSYRSGIPWVFGGGTKLTVL
notes: IgG1; also called Ab 687
Consider B16, for which the “Neutralization IC50 (RSV subtype A)” value in experiment [1] is over 25 µg/mL. Further, the Kd in experiment [2] was 1.67 nM; in experiment [3], 0.247 nM.

B17: ADI-41425 (antibody, V domains shown)
VH: EVQLLESGPAVVKPTQTLTLTCTVSGLSLSSPRMSVSWIRQPPGKGLEWLARIDWDGDKYYGTSLKTRLSISKDTSKNQVVLTMTNMDPVDTGTYYCAQTSIYASNAYYLARLDPWGQGMLVTVSS
VL: EIVMTQSPSLLSASVGDRVTITCRASQNIATYLNWYQQKPGKAPRLLIYAASNLQSGVPSGFSGSGSGTVFTLTISSLQPEDFATYFCQQSYETSLTFGGGTKVEIK
notes: IgG1
For the molecule B17, the “Neutralization IC50 (RSV subtype A)” value in experiment [1] was over 25 µg/mL. The Kd worked out at 1.14 nM in experiment [2] and 0.496 nM in experiment [3].
